Measurements taken from article PMC2195916.

Key:
[1] = target: C4b-binding protein (C4bp) (human) (UniProt P04003); assay: flow cytometry on cells
[2] = target: Por1B of N. gonorrhoeae strain MS11 (Neisseria gonorrhoeae strain MS11); assay: flow cytometry on cells

Substance	percent decrease of C4bp binding to MS11 (C4b in 60-fold molar excess) [1] [%]	percent decrease of binding in 575 mM NaCl [2] [%]	percent decrease of binding with 125 units of heparin [2] [%]
C4b (natural protein)	50	–	–
C4b-binding protein (C4bp) (from UniProt P04003 49-597; P20851 18-252) (complex)	–	85	> 90
